Several values for one entry are separate records, joined by “and”; a condition that tells them apart may be missing. Equal values may be shown once.
Target: von Willebrand factor (vWF)
Experiment: cell-based or functional assay

Sequence of von Willebrand factor (vWF) (P04275 764-2813): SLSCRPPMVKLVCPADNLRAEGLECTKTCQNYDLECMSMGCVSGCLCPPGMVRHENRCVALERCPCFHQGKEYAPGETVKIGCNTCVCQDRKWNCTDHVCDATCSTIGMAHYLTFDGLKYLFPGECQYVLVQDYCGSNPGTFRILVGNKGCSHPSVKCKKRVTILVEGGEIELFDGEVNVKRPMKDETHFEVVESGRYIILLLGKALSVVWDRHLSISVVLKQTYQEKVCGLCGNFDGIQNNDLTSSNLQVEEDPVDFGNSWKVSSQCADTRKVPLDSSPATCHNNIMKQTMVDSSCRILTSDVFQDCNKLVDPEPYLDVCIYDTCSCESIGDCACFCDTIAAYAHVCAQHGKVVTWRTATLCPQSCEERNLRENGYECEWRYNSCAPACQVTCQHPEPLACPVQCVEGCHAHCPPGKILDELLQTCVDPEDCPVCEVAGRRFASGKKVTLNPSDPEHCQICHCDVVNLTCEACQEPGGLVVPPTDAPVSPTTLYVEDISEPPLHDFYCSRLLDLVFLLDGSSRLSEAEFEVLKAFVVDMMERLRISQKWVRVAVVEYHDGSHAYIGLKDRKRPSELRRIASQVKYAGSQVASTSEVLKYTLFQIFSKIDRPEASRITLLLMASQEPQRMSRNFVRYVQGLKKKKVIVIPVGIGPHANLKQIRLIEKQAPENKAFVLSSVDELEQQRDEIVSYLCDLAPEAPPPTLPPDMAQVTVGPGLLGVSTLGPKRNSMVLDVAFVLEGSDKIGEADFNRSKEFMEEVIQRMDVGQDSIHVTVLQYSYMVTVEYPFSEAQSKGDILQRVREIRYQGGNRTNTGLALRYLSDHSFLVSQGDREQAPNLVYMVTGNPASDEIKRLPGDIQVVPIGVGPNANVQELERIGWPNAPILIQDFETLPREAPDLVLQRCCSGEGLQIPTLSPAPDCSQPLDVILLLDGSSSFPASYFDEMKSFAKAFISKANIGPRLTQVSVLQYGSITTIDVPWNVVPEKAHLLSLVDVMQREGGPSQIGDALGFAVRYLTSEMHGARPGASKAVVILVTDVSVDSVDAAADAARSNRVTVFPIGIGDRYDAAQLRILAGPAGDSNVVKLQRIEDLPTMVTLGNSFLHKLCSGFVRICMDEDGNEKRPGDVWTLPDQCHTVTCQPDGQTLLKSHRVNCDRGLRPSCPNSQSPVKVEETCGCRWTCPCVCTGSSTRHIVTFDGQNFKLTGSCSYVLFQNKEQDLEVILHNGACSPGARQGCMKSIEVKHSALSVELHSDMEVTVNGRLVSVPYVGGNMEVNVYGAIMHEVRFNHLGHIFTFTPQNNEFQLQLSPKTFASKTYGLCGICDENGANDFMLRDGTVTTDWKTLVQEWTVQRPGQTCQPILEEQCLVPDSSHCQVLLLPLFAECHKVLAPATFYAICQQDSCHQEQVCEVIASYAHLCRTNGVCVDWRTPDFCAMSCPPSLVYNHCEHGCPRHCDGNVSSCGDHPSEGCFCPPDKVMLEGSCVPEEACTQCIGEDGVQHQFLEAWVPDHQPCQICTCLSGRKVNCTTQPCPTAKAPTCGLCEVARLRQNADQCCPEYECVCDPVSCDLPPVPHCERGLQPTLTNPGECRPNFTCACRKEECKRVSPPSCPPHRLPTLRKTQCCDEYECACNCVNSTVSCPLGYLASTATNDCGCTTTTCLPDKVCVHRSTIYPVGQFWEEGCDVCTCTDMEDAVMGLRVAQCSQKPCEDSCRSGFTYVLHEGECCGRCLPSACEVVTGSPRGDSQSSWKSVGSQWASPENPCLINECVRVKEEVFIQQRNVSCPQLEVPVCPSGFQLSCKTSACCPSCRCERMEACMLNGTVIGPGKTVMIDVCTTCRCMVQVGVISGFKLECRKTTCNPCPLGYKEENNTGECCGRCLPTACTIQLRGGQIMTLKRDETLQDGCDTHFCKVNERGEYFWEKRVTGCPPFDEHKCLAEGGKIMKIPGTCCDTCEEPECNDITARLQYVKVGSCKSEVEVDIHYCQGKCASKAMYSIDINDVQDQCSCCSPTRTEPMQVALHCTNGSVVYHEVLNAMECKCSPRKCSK

platelets bound to the channel (chamber coated with 10 ug/mL vWF, flow rate 1600 s-1): 62.3% and 75.8%
Substance: CD42b (from UniProt P07359 17-652) (receptor)
